Assay: soluble on expression in E. coli; label from the status in PepcDB or PDB records

Sequence	soluble on expression in E. coli
MGHHHHHHSHMARPWTEDGDWTEPGAPGGTEDRPSGGGKANRAHPIKQRPFPYEHKNTWSAQNCKNGSCVLDLSKCLFIQGKLLFAEPKDAGFPFSQDINSHLASLSMARNTSPTPDPTVREALCAPDNLNASIESQGQIKMYINEVCRETVSRCCNSFLQQAGLNLLISMTVINNMLAKSASDLKFPLISEGSGCAKVQVLKPLMGLSEKPVLAGELVGAQMLFSFMSLFIRNGNREILLETPAP	not soluble
MGSDKIHHHHHHMSAMLTVEGLGKSYRVWGSEWLRAASWFGLKVKPREEHWVLRNVGFSVTAGESIGIMGRNGAGKSTLLKLITGTSQPTEGRIVRRGRIAAILELGMGFNPDLSGRENARHSAGLMGYTLDQIEAVLPEIQEFAEIGDYFDEPVRTYSSGMQVRVAFAVATAFRPDVLIVDEALSVGDVYFQAKCFKRILSFKEKGMTLILVSHSVGDVVKHCDRAILIKDGGVYADGPSREVSNLYLDELFGKKPASLQAEAKDTPKDLRAGTEDLFHTRPYYNAGEHRWGQGGARILDYVVVSDGQEFPARVESGSRTAFYVKIAFDQDFDSVVPGILVKTLEGLFLYGTNSFLSSEGRTGIAAKAGDVIVCKFTMPLDLNEANYLISLGISSGDPLVELTPLDRRYDAIVLNVARGMQFWGMMDLKADFEIVEALS	not soluble
MGSDKIHHHHHHAMFPERYVSEESAARADTINFRLASAGEAKRLIAAKDSYTANWSPFDIAARLENPEGKREDLVSLAVREVREWTAEEAQQIEQIRKNLNDTIRKYGYRIPFPKEIVLVKTTMKDEGGAGGYTRSNWIALTDATFQRGTEASHTRLLVHETFHILTRLNPGFKKKLYRAIDFNILPKEIEFPEDIRKSRISNPDVSRCDSYATFTIDGKPQNCTMIIYTNRPYTTGKFYQYINVGLIPLDESFKPLRESGKTVIYPLQKATDFFDKVGRNTGYVIDPEEVLADNFAIALLNTPNVHTPELQKKVQELLK	not soluble
APLFIKNVNGIKVAILSYAYGFNGLESNLTEKEIANHLSNLDEKRMKVEIERAEKEADVTVIMPQMGVEYRLEPTDEQVKLYHKMIDWGADIIFGGHPHVVEPSEVVKKDGQQKLIIYSMGNFISNQRIETVDGVDNAAWTERSVLMDVTLEKKNCQTTIKTAQAHPTWVNRTPKGTISPEGYPLYTYQTYILEDFIKGRKYRNKLDEETKERIDTAYKEMNAHVNL	not soluble
MSLNVLHVASECNPFFKTGGLADVLGSLPKALIKQGINVSVILPKYGHLSDEWQNQLTLKKSFTVSVTWRNQYCGLEQFVDQGVTYYFIDNEYYFKRERLYGYLDEAERFTFFNHAVLSSLPFLDESPDLIHCHDWQSGLIPAYMKTGSVENPVPTVFTIHNLRYQGAFPPDVFRELLHFAPEHFAGLEMDGAINFLKGALVHSDRVTTVSPTYAQEIQTPAFGEGLHGLLHQERGKTRGILNGIDLEDFDPKTDPHVTYPYKHNQMEKRKNKQVIQRLFELPERKDIPLIAMVSRLVEEKGVPLLTQIAGELVTTENVQLAILGTGDPSLEDQLHHLASLHPHQISFKCVFAEPLARKLYAGADLFIMPSRFEPCGLSQMISLRYETVPIVRETGGLYDTIQSYNEEIGEGNGFSFTHYNAHDFLYTIKRALRFYRTEKEWENLLLNIYSSEVGWDVSAKQYTALYEEILGKRKVEAEGHHHHHH	not soluble
MAVRIRLAKFGRKHHPIYRIVVMDAKSPREGKYIDILGTYDPKRKVLINVYPEKVKEWVLKGVELSHRAKAILWNHGILKEVVPEGYEMKRVGDYYVFEKRESKKSKGGEAA	soluble
MDAIVMAGGFGQRLGMGEKPCVELLGKPLITYVIDNLRASKNIDRVFVAVSPVTPKTEIMIQERYKGEVQVIRTFGGNYVGDMIHAVETSNTAGPVMIIMSDLPLVNPDLIDSVIEKYREEGKPALSVYVPINVCRGTGTRPDTVFNKDGKLIVPAGVNILDSSQIRKEQEDFNLILDNPRLAINVNTVKDLQRCKDLLQCSN	soluble
MSLGAIVEVITIKNYSLKSENYEAEIDIPKIRGLKDKNLEQRLNSSFMEDGKRLYHQFQERMEKIQSSKNKGYKSLSLSYSVKNNSKKFLSIEMTKNEIEASSYVSKVHYTIDKKRQIVLTLPMLFKDDKYIKVISDNIKEQMREQMKKDSTKSYFIDQKKDLPVEDFKTINKYQDFYFNKNEDLVICFDEYEVAPGYMGAVEFVIPYKVIKDEGHHHHHH	soluble
SKNEKEQLSKAKASVSSLNKVIQTKLTVGNLGLGLVVIQNGPYLQISHLINKGAAASDGILQPGDVLISVGHANVLGYTLREFLKLLQNITIGTVLQIKAYRGFLEIPQEWQD	soluble
MSLSHNSSLPPFTASGFAEDQGAVRIWRKDSGDNVHFLAVFSPWRSGDTTTREYRWQGDNLTLININVYSKPPVNIRARFDDRGDLSFMQRESDGEKQQLSNDQIDLYRYRADQIRQISDALRQGRVVLRQGRWHAMEQTVTTCEGQTIKPDLDSQAIAHIERRQSRSSVDVSVAWLEAPEGSQLLLVANSDFCRWQPNEKTFEGHHHHHH	not soluble
VKAKKQETAATMKDVALKAKVSTATVSRALMNPDKVSQATRNRVEKAAREVGYLPQPMGRNVKRNESRTILVIVPDICDPFFSEIIRGIEVTAANHGYLVLIGDCAHQNQQEKTFIDLIITKQIDGMLLLGSRLPFDASIEEQRNLPPMVMANEFAPELELPTVHIDNLTAAFDAVNYLYEQGHKRIGCIAGPEEMPLCHYRLQGYVQALRRCGIMVDPQYIARGDFTFEAGSKAMQQLLDLPQPPTAVFCHSDVMALGALSQAKRQGLKVPEDLSIIGFDNIDLTQFCDPPLTTIAQPRYEIGREAMLLLLDQMQGQHVGSGSRLMDCELIIRGSTRALP	soluble
MGSDKIHHHHHHMDNIKQLSRLIIFAEVVQQGSFTGAAKQLGITKSAVSQQIKSLEADMDIRVLNRTTRGVSTTALGQKLLSRCQVLKDQVDLIFKDIVNAEENPRGRFAITLPHSLESNVVMPAIEQLCIEYPGIEPEIIVSDSSLDLVENNLDVAIHAGDLPDSSYRALPIGTITEIFCATPLYLNKNFTPQKLSDLAQLKWISTSWQKQKMSVYNSTNKEKVTIELTQFSKVNTFSTALAMALRHLGLVLLPDNVAKPLIKSGELVHIMEQFTGPVWPVHTLHAYQREKPVHLTRFHQLLCNHFHNL	not soluble
MKFTIMSKGDQSSDTLASTMKEYLLDFGFIMDEKEPDIVISVGGDGTLLYAFHRYYNRLDETAFVGVHTGHLGFYADWLPTEVEKLVIAIAKTPFQVVEYPLLEVIIRYVNGSKESQYLAMNEATVKSAEGTLVTEVEIRGEYFETFRGDGLCISTPSGSTAYNKALGGAIIHPSIEAIQIAEMASINNRVFRTVGSPLVLPKHHTCVLKPAAGMNLQITVDHLTMVHQDVKSIQYRVANEKVRFVRFRPFPFWKRVRDSFVADKLEHHHHHH	not soluble
MSLAIKLIAIDMDGTLLLPDHTISPAVKNAIAAARARGVNVVLTTGRPYAGVHNYLKELHMEQPGDYCITYNGALVQKAADGSTVAQTALSYDDYRFLEKLSREVGSHFHALDRTTLYTANRDISYYTVHESFVATIPLVFCEAEKMDPNTQFLKVMMIDEPAILDQAIARIPQEVKEKYTVLKSAPYFLEILDKRVNKGTGVKSLADVLGIKPEEIMAIGDQENDIAMIEYAGVGVAVDNAIPSVKEVANFVTKSNLEDGVAFAIEKYVLNEGGSHHHHHH	soluble
MATTEQLANTTQKEPVIDLDQDSNMEIAHKIQNQTKRLPISEPANKNKNVTSKQNKETNRKTFEKSKRMATSTIQDRVLRTQKTRKDKESTTEKVNAILKKSAKQIKVREEEEGDDDLEDELTLYPSKRKMMVGSKNRKRTIKPNRDTIAEEQETDGEHGVKQRAFDPKQRHRQCPECLLLFSTPDKLKRHMKSHGDVPDVYCSLCNTPIKFKYNLRVHLEKCYDKMKLSLHDSMLSKVYPDFVRKLQEAAKNPVLPMPTLEGMPYEFTLKGVVGFDTSLDITKDLMLAKYEQKKQRELAGIDSDDSDELDYFDDFPDE	not soluble
MGSSHHHHHHSSGLVPRGSHMANVAIIGTEKSGRTSLAANLGKKGTSSDITMYNNDKEGRNMVFVDAHSYPKTLKSLITALNISDIAVLCIPPQGLDAHTGECIIALDLLGFKHGIIALTRSDSTHMHAIDELKAKLKVITSGTVLQDWECISLNTNKSAKNPFEGVDELKARINEVAEKIEAENAELNSLPARIFIDHAFNVTGKGCVVLGVVKQGISKDKDKTKIFPLDRDIEIRSIQSHDVDIDSAPAGTRVGMRLKNVQAKDIERGFIISDKEIVTTDYTLECTVSKFTKKIEPASVLHLFVGLQSEPVRVEKILVDGNEVEEAKPGSTCVLELSGNKKLAYSKQDRFLLANLDLTQRFAAYGFSK	soluble
MSLTELLNNQDYRKEALKEIIRELHRGKSVEEVKARFNELIKDVAPAEISLMEQALINEGLPVEEVQRLCDVHAAVFKESLERAPQPETIPGHPVHTFKEENRALEDLMIREIQPLLAELRRANPDVEKDLAIKLAEKLNLLQDVNKHYSRKENLLFPYLEKYQIVGPPKVMWGVDDEIRDLLKEARDLAVNYVPDKKEELITRTEAALAKIKEMIFKEERILFPMALETLTEDEWYRIMLDSASIGYCLIEPREDWRPAQVKLDQKETVASEETRGYIKFATGILTPREISLIFDHLPVDITFVDKDNVVKYFSNTRERIFTRSRAVIGRRVENCHPPASVQVVEKLIADFKSGRKDREAFWLHLGDKYVFIQYFAVRDEKGDFAGTLEVTMDLKPLQAISGEKRIMDEGHHHHHH	soluble
MGSDKIHHHHHHVTVHGLPAPSADTALYQSIMEAGFTAFPERLANWRRFKAAQRGERLDYLPVKLDVEHVSRCNYRCTMCQVSDWPKMTRAADMTVGDFKSLLEQQIGVVEIKLQGMGEPLLAAESFFEMIRHARERHIWVRATTNGSLLHIKENYKGLVESDICEIQVSIDGARPETYEAIRRGGKFERVAENCRLLNAHAAQDGRERTRMWVVVQQGNLADLDLLPKAAAEMGFKRLTLSLDLTSWGQETWERNNEALDAHDLLPVEKAWALVEEGKRLGVEVTFWAIDSKYDWSDPAKLCPWPFERAYIASDMRVVPCCMIANPDVLDMGDARDLTGVWTGERMAEFRRAHLEGRIPEVCNSCYRDPPAP	not soluble
MKLTILRLEHFSAQDQIDLGKIWPEYSASSLSVDETHRIYAARFNERLLGAVRVTLSGTQGALDSLRVREITRRRGVGQYLVEEVIRDNPNVSSWWMADVGVEDRSVMAAFMQALGFTAQHDGWEKR	not soluble
MTDYDDYEDRSGVVEEELLDFDRAMLDFQAMFPSLSNSHIEYVLRKYDGDVSATINELLYDNTPTTTTSESIPHGGDLTKLRQRRHEINEKLRENQKFLDTVTDVEIARAYEDQQLALLLEHREVNTLISEEKKKKSCSDSSSIQESRRHVKIPGKNSKNSKISVNKAKKLEPRRRSDEDRVPDGPYIGEGEVKSENFAAKIKETLRKASGSRISRLFSAP	not soluble
MAEVVNISKSASFSKQEKEFSDFQKSKESNEKILNKESNRFTLHPIMYPEVWNFYKKAEASFWTAEEIDLSSDLKDFEKLNVNEKHFIKHVLAFFAASDGIVLENLASKFLREVEIIEAKKFYSFQIAVENIHSETYSLLIDNYIKDEKERLNLFHAIENIPAIKNKALWAAKWINDTNSFAERIVANACVEGILFSGSFCAIFWFKKQNKLHGLTFSNELISRDEGLHTDFNCLIYSLLENKLPENVVQNIVKEAVEVERSFICESLPCDLIGMNSRLMSQYIEFVADRLLECLGCSKVFHSKNPFNWMDLISLQGKTNFFEKRVADYQKSGVMAQRKEQVFSLNTDF	soluble
SLLLCDIGNSNANFLDDNKYFTLSIDQFLEFKNEQKIFYINVNEHLKEHLKNQKKFINLEPYFLFDTIYQGLGIDRIAACYTIEDGVVVDAGSAITIDIISNSIHLGGFILPGIANYKKIYSHISPRLKSEFNTQVSLDAFPQKTMDALSYGVFKGIYLLIKDAAQNKKLYFTGGDGQFLANYFDHAIYDKLLIFRGMKKIIKENPNLLY	soluble

— the DeepSol protein solubility set
